Results on 2 molecules are retold here after publication PMC7076459, “Biochemical and Molecular Characterization of PvNTD2, a Nucleotidase Highly Expressed in Nodules from Phaseolus vulgaris” (Plants, 2020).

As a reminder, the Km is the concentration of substrate that gives half-maximal velocity. What is called Vmax is the rate approached at saturating substrate.

In series [1] the target is T1, PvNTD2 (Phaseolus vulgaris, UniProt V7AIP8).
T1 construct: gene PHAVU_011G182400g; ORF without predicted signal peptide (cleavage predicted between 24 and 25)
T1 sequence (V7AIP8 25-269): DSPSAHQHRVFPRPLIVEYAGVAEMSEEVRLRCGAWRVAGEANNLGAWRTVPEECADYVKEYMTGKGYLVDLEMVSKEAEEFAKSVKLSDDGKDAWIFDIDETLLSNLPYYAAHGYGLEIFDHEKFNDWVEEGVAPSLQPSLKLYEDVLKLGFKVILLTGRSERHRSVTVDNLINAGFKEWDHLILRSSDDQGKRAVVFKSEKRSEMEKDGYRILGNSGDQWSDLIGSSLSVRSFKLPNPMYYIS
The series is described as follows: phosphate release, inhibition of phosphatase activity. In kind it is biochemical. The following applies: 2 mM UMP substrate (other nucleotides also tested), pH 7, 1 mM MgCl2, 37 °C; reaction product.

Substrate in series [2]: Cc1cn([C@H]2C[C@H](O)[C@@H](COP(=O)(O)O)O2)c(=O)[nH]c1=O
The series is described as follows: phosphate release, Hanes-Woolf plot. The format is biochemical, Phaseolus vulgaris. Conditions: 50 mM TES-NaOH pH 7, 1 mM MgCl2, 37 °C. The text has this:
(§1) phosphate release, Hanes-Woolf plot on PvNTD2

Substrate in series [3]: Nc1ncnc2c1ncn2[C@@H]1O[C@H](COP(=O)(O)O)[C@@H](O)[C@H]1O
The series is described as follows: phosphate release, Hanes-Woolf plot. In kind it is biochemical, Phaseolus vulgaris. The following applies: 50 mM TES-NaOH pH 7, 1 mM MgCl2, 37 °C.
From the text: as §1

Substrate in series [4]: O=c1[nH]c(=O)c2ncn([C@@H]3O[C@H](COP(=O)(O)O)[C@@H](O)[C@H]3O)c2[nH]1
The series is described as follows: phosphate release, Hanes-Woolf plot. Conditions: 50 mM TES-NaOH pH 7, 1 mM MgCl2, 37 °C. The format is biochemical, Phaseolus vulgaris.
From the text: as §1

Substrate in series [5]: O=c1ccn([C@@H]2O[C@H](COP(=O)(O)O)[C@@H](O)[C@H]2O)c(=O)[nH]1
The series can be described thus: phosphate release, Hanes-Woolf plot. The format is biochemical, Phaseolus vulgaris. The following applies: 50 mM TES-NaOH pH 7, 1 mM MgCl2, 37 °C.
From the text: as §1

In the case of `Nc1ncnc2c1ncn2[C@@H]1O[C@H](CO)[C@@H](O)[C@H]1O` [adenosine], the “% activity at 0.2 mM” value in series [1] is “The activity of the recombinant protein was strongly inhibited in the presence of adenosine”.

B1: PvNTD2 (Phaseolus vulgaris) (protein)
chain: DSPSAHQHRVFPRPLIVEYAGVAEMSEEVRLRCGAWRVAGEANNLGAWRTVPEECADYVKEYMTGKGYLVDLEMVSKEAEEFAKSVKLSDDGKDAWIFDIDETLLSNLPYYAAHGYGLEIFDHEKFNDWVEEGVAPSLQPSLKLYEDVLKLGFKVILLTGRSERHRSVTVDNLINAGFKEWDHLILRSSDDQGKRAVVFKSEKRSEMEKDGYRILGNSGDQWSDLIGSSLSVRSFKLPNPMYYIS
notes: ORF without predicted signal peptide (cleavage predicted between 24 and 25)
In the case of B1, the Km in series [2] is 63 µM; in series [3] it was 11 µM; in series [4], 95 µM; in series [5], 39 µM. Besides, the Vmax in series [2] was 4.08 µmol/min/mg; in series [3], 1.46 µmol/min/mg; in series [4], 4.22 µmol/min/mg; in series [5], 4 µmol/min/mg.
